Data on 7 molecules can be found in patent US20120178694A1 (University of Pennsylvania, published 2012).

As usually defined, the Kd is the equilibrium constant for the complex coming apart. The term koff denotes the rate constant with which the complex falls apart. A high value points to fast dissociation. In general, kon refers to a measure of how fast the partners come together.

The target in test [1] is T1, C3 purified from fresh human plasma (human, UniProt P01024 23-1663). As to the kind of experiment: cell-based or functional assay.
Test [2] deals with T1, C3 purified from fresh human plasma. The test is described as follows: cell-based or functional assay. This is another data set of the same source.
The target of test [3] is biotinylated C3b (UniProt P01024). As to the kind of experiment: SPR, Biacore 3000; biotinylated C3b on streptavidin chip, peptide injected; 1:1 fit.
Test [4] addresses T1, C3 purified from fresh human plasma. As to the kind of experiment: cell-based or functional assay. The source holds these as a separate data set.
Test [5] concerns the target biotinylated C3b (UniProt P01024). The test is described as follows: SPR on immobilised C3b; ratio relative to peptide 14.
Test [6] has as its target T1, C3 purified from fresh human plasma. The test is described as follows: ITC; peptide titrated into C3, PBS, 25 C. The protocol:
(§1) ITC analysis. All ITC experiments were performed with the Microcal VP-ITC calorimeter (Microcal Inc., Northampton, Mass.), using protein concentrations of 1.8-5 μM C3 in the cell and peptide concentrations of 40-100 μM of individual compstatin analogs in the syringe. All titrations were performed in PBS (10 mM phosphate buffer with 150 mM NaCl, pH 7.4) at 25° C. using multiple peptide injections of 2-7 μL each. The raw isotherms were corrected for the heats of dilution by subtracting the isotherms representing peptide injections into the buffer. The resulting isotherms were fitted to a single site of sites models using Origin 7.0 software, and the model that produced the lowest χ² value was deemed to be appropriate for the respective data set. The Gibbs free energy was calculated as ΔG=ΔH−TΔS. Each experiment was repeated at least twice.
(§2) Characterization of binding thermodynamics.
(ITC needs no label: the signal is the heat of the interaction.)

Test [7] has the same target. As to the kind of experiment: ITC with C3; relative to peptide 14. The protocol: as §1, §2
Test [8] shares this target. As to the kind of experiment: cell-based or functional assay. This is another data set of the same source.

Bridge positions count the residues as written; N and C are the ends. Square brackets hold non-standard residues; d marks the D form. Trp(1-Me) = Cn1cc(C[C@H](N)C(=O)O)c2ccccc21; NMeI = CC[C@H](C)[C@H](NC)C(=O)O; Nle = CCCC[C@H](N)C(=O)O; Sar = CNCC(=O)O

T1 sequence (P01024 23-1663): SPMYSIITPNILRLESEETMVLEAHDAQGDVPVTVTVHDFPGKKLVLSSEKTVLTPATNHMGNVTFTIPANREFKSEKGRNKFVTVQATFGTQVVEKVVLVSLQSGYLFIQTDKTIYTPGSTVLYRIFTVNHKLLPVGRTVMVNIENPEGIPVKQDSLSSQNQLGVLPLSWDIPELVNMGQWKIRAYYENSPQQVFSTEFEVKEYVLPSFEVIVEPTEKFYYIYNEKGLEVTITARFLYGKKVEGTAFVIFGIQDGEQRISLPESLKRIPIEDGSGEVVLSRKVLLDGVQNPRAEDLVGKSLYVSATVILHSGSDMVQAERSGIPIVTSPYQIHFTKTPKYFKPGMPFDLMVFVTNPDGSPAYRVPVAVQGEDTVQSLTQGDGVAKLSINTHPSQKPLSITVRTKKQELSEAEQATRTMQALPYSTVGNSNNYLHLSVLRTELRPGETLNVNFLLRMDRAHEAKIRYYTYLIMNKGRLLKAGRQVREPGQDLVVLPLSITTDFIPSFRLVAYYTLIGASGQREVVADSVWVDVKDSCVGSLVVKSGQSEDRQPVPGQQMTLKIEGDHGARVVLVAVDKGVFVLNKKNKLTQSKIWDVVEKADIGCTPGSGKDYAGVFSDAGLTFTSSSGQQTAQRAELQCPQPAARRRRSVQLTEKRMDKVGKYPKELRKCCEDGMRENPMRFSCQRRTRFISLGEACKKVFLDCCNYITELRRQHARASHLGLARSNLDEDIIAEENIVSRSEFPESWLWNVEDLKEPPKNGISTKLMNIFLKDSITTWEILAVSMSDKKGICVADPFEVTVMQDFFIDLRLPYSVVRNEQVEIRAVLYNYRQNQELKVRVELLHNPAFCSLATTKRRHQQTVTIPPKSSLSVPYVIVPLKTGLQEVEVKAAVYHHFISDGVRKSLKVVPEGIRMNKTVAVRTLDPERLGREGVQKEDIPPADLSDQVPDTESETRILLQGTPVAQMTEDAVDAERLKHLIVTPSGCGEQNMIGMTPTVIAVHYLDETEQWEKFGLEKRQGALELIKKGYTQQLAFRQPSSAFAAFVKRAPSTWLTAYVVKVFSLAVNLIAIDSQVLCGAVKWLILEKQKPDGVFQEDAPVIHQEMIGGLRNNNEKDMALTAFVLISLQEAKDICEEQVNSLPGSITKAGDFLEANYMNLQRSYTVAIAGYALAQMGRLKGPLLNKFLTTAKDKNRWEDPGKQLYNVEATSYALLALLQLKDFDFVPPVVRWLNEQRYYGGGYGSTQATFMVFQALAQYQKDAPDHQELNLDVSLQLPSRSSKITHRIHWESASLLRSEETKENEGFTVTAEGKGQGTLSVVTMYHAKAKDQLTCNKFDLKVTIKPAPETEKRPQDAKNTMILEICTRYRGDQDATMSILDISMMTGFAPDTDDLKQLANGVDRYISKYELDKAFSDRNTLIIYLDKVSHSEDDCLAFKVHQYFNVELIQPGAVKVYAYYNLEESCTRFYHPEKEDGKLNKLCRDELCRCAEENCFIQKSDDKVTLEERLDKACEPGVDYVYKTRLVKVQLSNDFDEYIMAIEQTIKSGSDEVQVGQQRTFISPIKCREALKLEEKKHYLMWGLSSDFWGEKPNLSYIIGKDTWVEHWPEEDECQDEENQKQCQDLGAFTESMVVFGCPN

B1: peptide 23 (peptide)
peptide: Ac-ICV[Trp(1-Me)]QDW[Sar]AHRCF-NH2
modifications: disulfide 2-12
SMILES: CC[C@H](C)[C@H](NC(C)=O)C(=O)N[C@H]1CSSC[C@@H](C(=O)N[C@@H](Cc2ccccc2)C(N)=O)NC(=O)[C@H](CCCNC(=N)N)NC(=O)[C@H](Cc2c[nH]cn2)NC(=O)[C@H](C)NC(=O)CN(C)C(=O)[C@H](Cc2c[nH]c3ccccc23)NC(=O)[C@H](CC(=O)O)NC(=O)[C@H](CCC(N)=O)NC(=O)[C@H](Cc2cn(C)c3ccccc23)NC(=O)[C@H](C(C)C)NC1=O
For B1, in test [1], the “IC50, inhibition of classical pathway complement activation, ELISA” value (“IC50, inhibition” for short) was determined as 257 nM. In addition, the “rP, relative potency compared to peptide 14” value (shortened to “rP, relative potency”) in test [2] is 0.8 fold.

B2: Ac-Ic[CV(1-MeW)QDW(N-MeG)AHRC]L-NH2 (peptide)
peptide: Ac-ICV[Trp(1-Me)]QDW[Sar]AHRCL-NH2
modifications: disulfide 2-12
SMILES: CC[C@H](C)[C@H](NC(C)=O)C(=O)N[C@H]1CSSC[C@@H](C(=O)N[C@@H](CC(C)C)C(N)=O)NC(=O)[C@H](CCCNC(=N)N)NC(=O)[C@H](Cc2c[nH]cn2)NC(=O)[C@H](C)NC(=O)CN(C)C(=O)[C@H](Cc2c[nH]c3ccccc23)NC(=O)[C@H](CC(=O)O)NC(=O)[C@H](CCC(N)=O)NC(=O)[C@H](Cc2cn(C)c3ccccc23)NC(=O)[C@H](C(C)C)NC1=O
B2: the “IC50, inhibition” value in test [1] came out at 108 nM. In the test with biotinylated C3b [3], this molecule returned a dissociation constant (Kd) of 4.6 nM, a koff of 0.006 s⁻¹ and a kon of 1.3e+06 M⁻¹ s⁻¹. In addition, the “rP, relative potency” value in test [2] was 1.9 fold. Besides, the “Fold change in activity (IC50) relative to SEQ ID NO:4” value in test [4] came out at 1.91 fold. In the test with biotinylated C3b [5], the rKD SPR worked out at 2.6 fold, the rka worked out at 1.3 fold and the rkd was determined as 1.9 fold.

B3: Ac-Ic[CV(1-MeW)QDW(N-MeG)AHRC](N-MeI)-NH2 (peptide)
peptide: Ac-ICV[Trp(1-Me)]QDW[Sar]AHRC[NMeI]-NH2
modifications: disulfide 2-12
SMILES: CC[C@H](C)[C@H](NC(C)=O)C(=O)N[C@H]1CSSC[C@@H](C(=O)N(C)[C@H](C(N)=O)[C@@H](C)CC)NC(=O)[C@H](CCCNC(=N)N)NC(=O)[C@H](Cc2c[nH]cn2)NC(=O)[C@H](C)NC(=O)CN(C)C(=O)[C@H](Cc2c[nH]c3ccccc23)NC(=O)[C@H](CC(=O)O)NC(=O)[C@H](CCC(N)=O)NC(=O)[C@H](Cc2cn(C)c3ccccc23)NC(=O)[C@H](C(C)C)NC1=O
notes: Sar^8, (NMe)Ile^13; also called peptide 21; analog 21
Consider B3, for which, in test [6], the “-TΔS” value amounted to 5.7 kcal/mol, the ΔG was -11.4 kcal/mol and the ΔH is -17.1 kcal/mol. Also, the “IC50, inhibition” value in test [1] was 62 nM. In the test with biotinylated C3b [3], the dissociation constant Kd came to 2.3 nM, the koff is 0.0035 s⁻¹ and the association rate constant (kon) stood at 1.5e+06 M⁻¹ s⁻¹. The “rP, relative potency” value in test [2] was determined as 3.3 fold. For the same molecule, in test [7], the “-TΔΔS” value was -1.3 kcal/mol, the “rKD ITC” value came to 3.3 fold, the ΔΔG was -0.7 kcal/mol and the ΔΔH was 0.5 kcal/mol. The “Fold change in activity (IC50) relative to SEQ ID NO:4” value in test [4] is 3.32 fold. Also, in the test with biotinylated C3b [5], the rKD SPR is 5.2 fold, the rka worked out at 1.5 fold and the rkd is 3.2 fold.

B4: Ac-Ile-c[Cys-Val-Trp(Me)-Gln-Asp-Trp-Sar-Ala-His-Arg-Cys]-Ile-NH2 (peptide)
peptide: Ac-ICV[Trp(1-Me)]QDW[Sar]AHRCI-NH2
modifications: disulfide 2-12
SMILES: CC[C@H](C)[C@H](NC(=O)[C@@H]1CSSC[C@H](NC(=O)[C@@H](NC(C)=O)[C@@H](C)CC)C(=O)N[C@@H](C(C)C)C(=O)N[C@@H](Cc2cn(C)c3ccccc23)C(=O)N[C@@H](CCC(N)=O)C(=O)N[C@@H](CC(=O)O)C(=O)N[C@@H](Cc2c[nH]c3ccccc23)C(=O)N(C)CC(=O)N[C@@H](C)C(=O)N[C@@H](Cc2c[nH]cn2)C(=O)N[C@@H](CCCNC(=N)N)C(=O)N1)C(N)=O
notes: Sar^8, Ile^13; also called peptide 17; Ac-Ic[CV(1-MeW)QDW(N-MeG)AHRC]I-NH2
In the case of B4, in test [6], the “-TΔS” value was found to be 2.9 kcal/mol, the ΔG was -11.2 kcal/mol and the ΔH is -14.1 kcal/mol. In test [1], the “IC50, inhibition” value was 92 nM. In test [8], the “IC50 (nM, CP), inhibition of classical pathway complement activation, ELISA, human serum” value (“IC50 (nM, CP), inhibition” below) came out at 92 nM and the “IC50 fold change relative to peptide 17” value stood at 1 fold. In the test with biotinylated C3b [3], this molecule came in with a dissociation constant Kd of 4.4 nM, a koff of 0.0066 s⁻¹ and an on-rate constant (kon) of 1.5e+06 M⁻¹ s⁻¹. In addition, the “rP, relative potency” value in test [2] came out at 2.2 fold. Besides, in test [7], the “-TΔΔS” value is -4.1 kcal/mol, the “rKD ITC” value came out at 2.4 fold, the ΔΔG is -0.5 kcal/mol and the ΔΔH is 3.5 kcal/mol. In addition, the “Fold change in activity (IC50) relative to SEQ ID NO:4” value in test [4] stood at 2.24 fold. In addition, in the test with biotinylated C3b [5], the rKD SPR is 2.7 fold, the rka turned out to be 1.5 fold and the rkd is 1.7 fold.

B5: Ac-Ic[CV(1-MeW)QDW(N-MeG)AHRC](Nle)-NH2 (peptide)
peptide: Ac-ICV[Trp(1-Me)]QDW[Sar]AHRC[Nle]-NH2
modifications: disulfide 2-12
SMILES: CCCC[C@H](NC(=O)[C@@H]1CSSC[C@H](NC(=O)[C@@H](NC(C)=O)[C@@H](C)CC)C(=O)N[C@@H](C(C)C)C(=O)N[C@@H](Cc2cn(C)c3ccccc23)C(=O)N[C@@H](CCC(N)=O)C(=O)N[C@@H](CC(=O)O)C(=O)N[C@@H](Cc2c[nH]c3ccccc23)C(=O)N(C)CC(=O)N[C@@H](C)C(=O)N[C@@H](Cc2c[nH]cn2)C(=O)N[C@@H](CCCNC(=N)N)C(=O)N1)C(N)=O
Consider B5, for which the “IC50, inhibition” value in test [1] was 109 nM. Besides, in the test with biotinylated C3b [3], the equilibrium dissociation constant (Kd) is 4.4 nM, the dissociation rate constant (koff) amounted to 0.0066 s⁻¹ and the kon is 1.5e+06 M⁻¹ s⁻¹. Further, the “rP, relative potency” value in test [2] is 1.9 fold. The “Fold change in activity (IC50) relative to SEQ ID NO:4” value in test [4] is 1.9 fold. Also, in the test with biotinylated C3b [5], the rKD SPR was found to be 2.7 fold, the rka was found to be 1.5 fold and the rkd is 1.7 fold.

B6: Peptide 17-ABP (peptide)
peptide: ICVWQDWGAHRCIK
chain: RLIEDICLPRWGCLWEDD
modifications: propiolic acid on the N-terminus, joined by triazole to the azido-Lys of the peptide 17 chain; N-terminal acetyl; 1-methyl-Trp at 4; N-methyl-Gly (Sar) at 8; disulfide Cys2-Cys12 (cyclic); two mini-PEG-3 spacers between Ile13 and a C-terminal Lys-NH2; 2-azidoacetyl on the Lys side chain, joined by azide-alkyne cycloaddition (triazole) to the ABP
On to B6, for which, in test [8], the “IC50 (nM, CP), inhibition” value is 242 nM and the “IC50 fold change relative to peptide 17” value was found to be 0.38 fold. In the test with biotinylated C3b [3], this molecule returned a Kd of 32 nM, a koff of 0.0036 s⁻¹ and an on-rate (kon) of 100000 M⁻¹ s⁻¹.

B7: Peptide 17-ABM (peptide)
peptide: ICVWQDWGAHRCIK
modifications: not fully specified; N-terminal acetyl; 1-methyl-Trp at 4; N-methyl-Gly (Sar) at 8; disulfide Cys2-Cys12 (cyclic); two mini-PEG-3 spacers between Ile13 and a C-terminal Lys-NH2; albumin-binding small molecule (ABM) on the Lys side chain
For the molecule B7, in test [8], the “IC50 (nM, CP), inhibition” value worked out at 137 nM and the “IC50 fold change relative to peptide 17” value stood at 0.67 fold. In the test with biotinylated C3b [3], this molecule had a dissociation constant (Kd) of 4.7 nM, an off-rate constant (koff) of 0.0056 s⁻¹ and an on-rate constant (kon) of 1.2e+06 M⁻¹ s⁻¹.
